From PMC9970974 (2023)

T1: short version of the toxin domain (Ile323-the C-terminus) of MafB2_(MGI-2B16B6), no tag (N. meningitidis B16B6, UniProt Q9JXD2 323-483)
T1 chain: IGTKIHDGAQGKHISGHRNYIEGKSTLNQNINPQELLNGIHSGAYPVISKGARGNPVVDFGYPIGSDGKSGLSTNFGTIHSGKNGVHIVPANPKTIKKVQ

B1: MafI2_(MGI-2B16B6) with a C-terminal 6xHis-tag (natural protein)
chain: MYKIKCFYDQFSSGELFNYCQFLDNSSNQKINTRGTVYQYIIYVLTGDLYLQKDIDENLEFIHQAENNPNEVYSGGGQGFCWDISAEKVVFYHNEFDEEDGWPDLSCSLHTFKTALIAWNAFLQLPKSIHSVVETVIEE

Assays:
[1] = biological target: short version of the toxin domain (Ile323-the C-terminus) of MafB2_(MGI-2B16B6), no tag (N. meningitidis B16B6) (UniProt Q9JXD2); experiment: ITC; Nano ITC, 20 °C, 10 mM Tris-HCl pH 8.0, 100 mM NaCl, 2 mM β-ME; 50 injections of 1 μl NmMafI2 (~1.3 mM) into NmMafB2-CT2 (~0.2 mM); independent binding sites model
[2] = biological target: T1, short version of the toxin domain …; experiment: ITC

Molecule	Kd [1] [nM]	stoichiometry N [1]	Kd [2] [nM]
MafI2_(MGI-2B16B6) with a C-terminal 6xHis-tag (from UniProt A0A0G4BSP3 1-139) (natural protein)	40	1	–
B1	–	–	35.1
